Results reported in US20100047232A1 (Genentech, published 2010).
One block for each binder: values may come before it.

B3: AP-Nogo66 (ligand, human, UniProt Q9NQC3 1055-1120, looked up)
chain: RIYKGVIQAIQKSDEGHPFRAYLESEVAISEELVQKYSNSALGHVNCTIKELRRLFLVDDLVDSLK
notes: also called AO-Nogo66; not shown: FLAG tag at the N-terminus; human placental alkaline phosphatase (AP)

Assays:
AP-Nogo66 [1] = biological target: B3; test: expression cloning, AP-fusion bait (20-50 nM) on COS7 cells transfected with human cDNA pools
Text: (§1) To identify novel receptors for inhibitory myelin proteins, an expression cloning approach was taken. As bait, constructs were generated that fused Alkaline Phosphatase (AP) to the N- and/or C-terminus of the following characterized myelin inhibitors (human cDNA used): Nogo66, two additional inhibitory domains of NogoA (NiRD2 and NiG20) (Oertle T, J. Neurosci. 2003, 23(13): 5393-406), MAG, and OMgp. These constructs were transfected into 293 cells to produce conditioned medium (in DMEM/2% FBS) containing the bait proteins. The cDNA library used in the screen was comprised of full-length human cDNA clones in expression-ready vectors generated by Origene. These cDNAs were compiled, arrayed, and pooled. Pools of approximately 100 cDNA's were transiently transfected into COS7 cells.
(§2) In particular, on Day 1, COS7 cells were plated at a density of 85,000 cells per well in 12-well plates. On Day 2, 1 mg of pooled cDNA's were transfected per well using the lipid-based transfection reagent FuGENE 6 (Roche). On Day 4, screening was performed. […] The cells were washed once in AP Buffer (100 mM NaCl, 5 mM MgCl₂, 100 mM Tris pH 9.5), and incubated in chromogenic substrate (Western Blue, Promega), and analyzed for presence of reaction product one hour after incubation, and again after overnight incubation. […]

AP-Nogo66 [2] = biological target: B3; test: AP activity on transfected COS cells after incubation with AP-Nogo66
Method: In particular, on Day 1, COS7 cells were plated at a density of 85,000 cells per well in 12-well plates. On Day 2, 1 mg of pooled cDNA's were transfected per well using the lipid-based transfection reagent FuGENE 6 (Roche). On Day 4, screening was performed. Briefly, culture medium was removed from cells and replaced with 0.5 ml of 293 cell-conditioned medium containing AP-fusion bait proteins (20-50 nM). Cells were incubated at room temperature for 90 minutes. The cells were then washed 3 times with phosphate-buffered saline (PBS), fixed for 7 minutes with 4% paraformaldehyde, washed 3 times in HEPES-buffered saline (HBS), and heat inactivated at 65° C. for 90 minutes to destroy endogenous AP activity. The cells were washed once in AP Buffer (100 mM NaCl, 5 mM MgCl₂, 100 mM Tris pH 9.5), and incubated in chromogenic substrate (Western Blue, Promega), and analyzed for presence of reaction product one hour after incubation, and again after overnight incubation. Positive cells were identified by the presence of dark blue precipitate over the surface of the membrane. Positive pools were further broken down to identify individual positive clones by subsequent rounds of screening.
To confirm Nogo66 binding to LILRB2 (SEQ ID NO: 2), and to test if Nogo66 binds to the murine orthologue PirB (SEQ ID NO: 1), binding assays similar to those described in Example 1 were carried out. […]

[3] = biological target: T1, Nogo Receptor (hit from the human cDNA library) (human, UniProt Q9BZR6 27-447); test: expression cloning, AP-fusion bait (20-50 nM) on COS7 cells transfected with human cDNA pools
T1 construct: whole, on cells; also called NgR; NgR1
T1 sequence (looked up): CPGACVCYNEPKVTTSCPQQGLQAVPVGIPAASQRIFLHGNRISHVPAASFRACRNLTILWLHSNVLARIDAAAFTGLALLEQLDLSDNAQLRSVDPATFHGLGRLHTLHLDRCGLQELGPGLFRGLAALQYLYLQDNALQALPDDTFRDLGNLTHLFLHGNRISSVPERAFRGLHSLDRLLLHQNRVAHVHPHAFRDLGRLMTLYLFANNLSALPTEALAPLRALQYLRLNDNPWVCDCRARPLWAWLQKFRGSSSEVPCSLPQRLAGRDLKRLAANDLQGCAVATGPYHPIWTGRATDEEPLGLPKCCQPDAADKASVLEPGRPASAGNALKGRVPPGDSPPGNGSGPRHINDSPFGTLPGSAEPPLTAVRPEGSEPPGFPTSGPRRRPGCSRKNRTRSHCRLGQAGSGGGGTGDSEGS
Text: as §1, §2

binding result (AP-Nogo66 [1]): binds
B1: LILRB2, transcript variant 1 (leukocyte immunoglobulin-like receptor, subfamily B, member 2) (receptor)
chain: QTGTIPKPTLWAEPDSVITQGSPVTLSCQGSLEAQEYRLYREKKSASWITRIRPELVKNGQFHIPSITWEHTGRYGCQYYSRARWSELSDPLVLVMTGAYPKPTLSAQPSPVVTSGGRVTLQCESQVAFGGFILCKEGEDEHPQCLNSQPHARGSSRAIFSVGPVSPNRRWSHRCYGYDLNSPYVWSSPSDLLELLVPGVSKKPSLSVQPGPVVAPGESLTLQCVSDVGYDRFVLYKEGERDLRQLPGRQPQAGLSQANFTLGPVSRSYGGQYRCYGAYNLSSEWSAPSDPLDILITGQIHGTPFISVQPGPTVASGENVTLLCQSWRQFHTFLLTKAGAADAPLRLRSIHEYPKYQAEFPMSPVTSAHAGTYRCYGSLNSDPYLLSHPSEPLELVVSGPSMGSSPPPTGPISTPAGPEDQPLTPTGSDPQSGLGRHLGVVIGILVAVVLLLLLLLLLFLILRHRRQGKHWTSTQRKADFQHPAGAVGPEPTDRGLQWRSSPAADAQEENLYAAVKDTQPEDGVEMDTRAAASEAPQDVTYAQLHSLTLRRKATEPPPSQEREPPAEPSIYATLAIH
notes: Expressed from full-length human cDNA in transfected COS7 cells; also called LIRB2; MIG10

binding result (AP-Nogo66 [2]): binds
B2: PirB (paired-immunoglobulin-like receptor B), mouse (receptor)
chain: SLPKPILRVQPDSVVSRWTKVTFFCEETIGANEYRLYKDGKLYKTVTKNKQKPANKAEFSLSNVDLRNAGQYRCSYSTQYKSSGYSDPLELVVTGDYWTPSLLAQASPVVTSGGYVTLQCESWHNDHKFILTVEGPQKLSWTQDSQYNYSTRKYHALFSVGPVTPNQRWICRCYSYDRNRPYVWSPPSESVELLVSGNLQKPTIKAEPGPVIASKRAMTIWCQGNLDAEVYFLHNEGSQKTQSTQTLQQPGNKGKFFIPSMTRQHAGQYRCYCYGSAGWSQPSDTLELVVTGIYEHYKPRLSVLPSPVVTAGGNMTLHCASDFHYDKFILTKEDKKFGNSLDTEHISSSRQYRALFIIGPTTPTHTGTFRCYGYFKNAPQLWSVPSDLQQILISGLSKKPSLLTHQGHILDPGMTLTLQCYSDINYDRFALHKVGGADIMQHSSQQTDTGFSVANFTLGYVSSSTGGQYRCYGAHNLSSEWSASSEPLDILITGQLPLTPSLSVKPNHTVHSGETVSLLCWSMDSVDTFILSKEGSAQQPLRLKSKSHDQQSQAEFSMSAVTSHLSGTYRCYGAQNSSFYLLSSASAPVELTVSGPIETSTPPPTMSMPLGGLHMYLKALIGVSVAFILFLFILIFILLRRRHRGKFRKDVQKEKDLQLSSGAEEPITRKGELQKRPNPAAATQEESLYASVEDMQTEDGVELNSWTPPEEDPQGETYAQVKPSRLRKAGHVSPSVMSREQLNTEYEQAEEGQGANNQAAESGESQDVTYAQLCSRTLRQGAAASPLSQAGEAPEEPSVYATLAAARPEAVPKDVEQ
notes: Expressed from cDNA in transfected COS7 cells; also called murine orthologue PirB

Binder: B3
binding result [3]: binds
